In test [1] the target is angiotensin converting enzyme (ACE) (human) (UniProt P12821). In words: indirect immunofluorescence flow cytometry, UT7 cells, BB9 at 20 µg/mL; grade = proportion of positive cells.
Test [2] shares this target. The test is described as follows: indirect immunofluorescence flow cytometry, HL60 cells, BB9 at 20 µg/mL; grade = proportion of positive cells. (In general: Flow cytometry measures light scatter and fluorescence of single cells or particles in a stream.)
The target is the same in test [3]. The test is described as follows: indirect immunofluorescence flow cytometry, K562 cells, BB9 at 20 µg/mL; grade = proportion of positive cells.
Test [4] shares this target. The test is described as follows: indirect immunofluorescence flow cytometry, KG-1 cells, BB9 at 20 µg/mL; grade = proportion of positive cells.
The target is the same in test [5]. In words: indirect immunofluorescence flow cytometry, MG63 cells, BB9 at 20 µg/mL; grade = proportion of positive cells.
Test [6] has the same target. The test is described as follows: indirect immunofluorescence flow cytometry, RC2A cells, BB9 at 20 µg/mL; grade = proportion of positive cells.
For test [7] the target is unchanged. The test is described as follows: indirect immunofluorescence flow cytometry, U937 cells, BB9 at 20 µg/mL; grade = proportion of positive cells.
The target is the same in test [8]. The test is described as follows: indirect immunofluorescence flow cytometry, MCF-7 cells, BB9 at 20 µg/mL; grade = proportion of positive cells.
The target is the same in test [9]. The test is described as follows: indirect immunofluorescence flow cytometry, HEL-DR cells, BB9 at 20 µg/mL; grade = proportion of positive cells.
For test [10] the target is unchanged. The test is described as follows: indirect immunofluorescence flow cytometry, Hi MEG cells, BB9 at 20 µg/mL; grade = proportion of positive cells.
Test [11] has the same target. The test is described as follows: indirect immunofluorescence flow cytometry, MEG-01 cells, BB9 at 20 µg/mL; grade = proportion of positive cells.
For test [12] the target is unchanged. The test is described as follows: indirect immunofluorescence flow cytometry, Nalm-6 cells, BB9 at 20 µg/mL; grade = proportion of positive cells.
For test [13] the target is unchanged. The test is described as follows: indirect immunofluorescence flow cytometry, dermal fibroblasts, BB9 at 20 µg/mL; grade = proportion of positive cells.

These results are taken from US20060088890A1.

Sequence of UniProt P12821 (P12821 30-1306): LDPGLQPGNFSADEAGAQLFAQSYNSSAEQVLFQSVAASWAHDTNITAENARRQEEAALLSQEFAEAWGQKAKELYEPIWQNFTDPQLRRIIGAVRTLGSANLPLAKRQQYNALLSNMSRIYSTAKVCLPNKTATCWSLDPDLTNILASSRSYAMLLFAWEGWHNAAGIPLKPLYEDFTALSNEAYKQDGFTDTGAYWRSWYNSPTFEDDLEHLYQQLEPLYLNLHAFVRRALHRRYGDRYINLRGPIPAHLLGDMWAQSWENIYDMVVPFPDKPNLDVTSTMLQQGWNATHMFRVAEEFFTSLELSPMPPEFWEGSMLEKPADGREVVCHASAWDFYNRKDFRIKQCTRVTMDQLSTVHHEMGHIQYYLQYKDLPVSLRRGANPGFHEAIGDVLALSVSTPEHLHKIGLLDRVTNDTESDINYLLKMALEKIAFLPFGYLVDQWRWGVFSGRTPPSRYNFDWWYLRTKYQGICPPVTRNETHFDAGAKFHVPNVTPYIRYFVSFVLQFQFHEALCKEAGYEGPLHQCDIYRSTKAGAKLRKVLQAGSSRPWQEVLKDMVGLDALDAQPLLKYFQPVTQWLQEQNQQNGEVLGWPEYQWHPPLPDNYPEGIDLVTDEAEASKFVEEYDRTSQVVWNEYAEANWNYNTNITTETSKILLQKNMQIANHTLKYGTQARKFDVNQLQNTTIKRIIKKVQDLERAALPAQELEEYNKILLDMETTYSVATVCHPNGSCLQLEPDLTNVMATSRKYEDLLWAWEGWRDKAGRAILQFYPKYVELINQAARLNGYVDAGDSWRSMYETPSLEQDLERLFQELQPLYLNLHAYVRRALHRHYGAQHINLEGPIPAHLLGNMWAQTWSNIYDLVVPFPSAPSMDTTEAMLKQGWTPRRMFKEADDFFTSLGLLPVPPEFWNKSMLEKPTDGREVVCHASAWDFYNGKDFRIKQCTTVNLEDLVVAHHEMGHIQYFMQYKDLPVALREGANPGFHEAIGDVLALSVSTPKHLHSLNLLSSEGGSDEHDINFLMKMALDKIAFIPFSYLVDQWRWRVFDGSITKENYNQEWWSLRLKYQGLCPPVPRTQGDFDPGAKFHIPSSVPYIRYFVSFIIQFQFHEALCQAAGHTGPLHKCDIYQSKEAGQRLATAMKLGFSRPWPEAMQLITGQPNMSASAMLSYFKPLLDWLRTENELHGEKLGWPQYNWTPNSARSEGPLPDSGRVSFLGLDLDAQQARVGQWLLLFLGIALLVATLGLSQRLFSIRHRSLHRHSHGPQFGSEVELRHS

Consider monoclonal antibody BB9, for which the proportion of BB9 positive cells in test [1] was 35 to 80%; in [2], 35 to 80%; in test [3], 35 to 80%; in test [4], 5 to 35%; in test [5], 35 to 80%; in test [6], 5 to 35%. The proportion of BB9 positive cells fell in the range of 5 to 35% in test [7]; 5 to 35% in test [8]; 35 to 80% in test [9]; 5 to 35% in test [10]; 35 to 80% in [11]; 5 to 35% in [12]. In test [13], this substance registered a proportion of BB9 positive cells of 80 to 100%.
